This is an account of results in patent US7816543B2, “Leptomycin derivatives” (Sanofi-Aventis, priority 2006, dated 2010).

The subject of data set [1] is COLO 205 (CanAg antigen-positive) cancer cells. Description: Cytotoxicity evaluation on COLO 205 cells. Format: cell-based, human. The note with it: COLO 205 (CanAg antigen-positive) cells, FIG. 1. The source says:
(§1) The human cancer cell lines HL60, Namalwa, A-375, COLO205 and Ramos were obtained from the American Type Culture Collection (ATCC). Kara is a murine tumor cell line that has been stably transfected with the human CD33 antigen.

The subject of the next data set is A375 cells. Put plainly: Cytotoxicity evaluation on A375 cells. Format: cell-based, human. The note with it: FIG. 1.
Source text: as §1

B1: huC242-SSNPB-leptomycin of example 6 (conjugate, chains of the INN, looked up)
VH: QVQLVQSGAEVKKPGETVKISCKASDYTFTYYGMNWVKQAPGQGLKWMGWIDTTTGEPTYAQKFQGRIAFSLETSASTAYLQIKSLKSEDTATYFCARRGPYNWYFDVWGQGTTVTVSS
VL: DIVMTQSPLSVPVTPGEPVSISCRSSKSLLHSNGNTYLYWFLQRPGQSPQLLIYRMSNLVSGVPDRFSGSGSGTAFTLRISRVEAEDVGVYYCLQHLEYPFTFGPGTKLELK
modifications: SSNPB-leptomycin conjugate
As for B1, the IC50 (usually the point on the concentration scale where inhibition reaches its midpoint) in data set [1] is 130 pM; in the data set with A375 cells, more than 5000 pM.
